Results as given in the DeepSol protein solubility set.

Assay: soluble on expression in E. coli; label from the status in PepcDB or PDB records

Row | Sequence | soluble on expression in E. coli
1 | MSLRRDHTRTAQVTHVESLTNSPGVRENWPGWASPAVVERMVKSGVAKPWSHQVRAANLAHSGSNVIIATGISSGKSLGFLMPCTAAIAEGGSVLYLAPTKALAADQERKLAELAMPGVRAAVYDGDTPMEERSWARAHANYVLTNPDMLHRSIVARHPVWAGFLRRLSYVVVDEAHHYRGVFGSHVAQIMRRLRRVCGCYGAEPRFILASATTATPAETAQQLTGLPVVAVTGDGSARASLRFALVEPELTEKTGEQGAPMRRTATAVAAELLADLVSHEVSTLVFVRSRQAAELVALAAQRALADAGRPELARRVAAYRGGYLAEDRRRLEQRLRSGELLGLATTNALELGVDVSGLDAVVMAGWPGTRASLWQQAGRAGRSGRDALAVFVARDDPLDTYLVHHPDAIFGQDVEATVLDPDNPYVLAPHLCAAAEEEGHHHHHH | not soluble
2 | MVHTPLNFKFSEKREEWNLRFCRNVGVSIVELVTADASSAYVRGLMAVNGSKVYSILPFISIDAEKAKKAKFPEDRMSGVRGKVIPSVLPEIKGETILDIGCGFGTLTMELAKNNPESQVYGIDLHDSLTGQAEMNAEVLGLPNVEFRTGSAYALPFEKDSIDAVTCFLMLHHLEDIKFALFEIKRVLKKGGSLTAVEPLAHQHHHGPQLSEAEWKELFEEAGFGTETENMEGAVVLRAVKRELEHHHHHH | not soluble
3 | DKIAIIGSRRMSVYTKNCVFSLASMLKNAHLCVVSGGALGVDITASMAAMPNTIGIFANGLDQIYPRTNEKIIKQIYENALALSEYEDDYLPKNYDFLLRNRLVIALSKAVVVAQADIKSGSMQSAKLALELNKPLYVLPQRLGESTATNLLLKENKAKLICDFKEFVSEFASID | not soluble
4 | EALYVAGYLALYSKDEGELNITPEIVRSALPPTSKIPINIDHRKDCVVGEVIAIIEDIRGPFFLGIVRCPQLHAVLFEAAHSNFFGNRDSVLSPLERALYLVTNYLPSVSLSSKRLSPNEIPDGNFFTHVALCVVGRRVGTVVNYDCTPESSIEPFRVLSMESKARLLSLVKDYAGLNKVWKVSEDKLAKVLLSTAVNNMLLRDRWDVVAKRRREAGIMGH | soluble
5 | SKGKLGEKISQFKIVEELKAKGLYAYFRPIQSKQDTEVKIDGRRVLMFGSNSYLGLTTDTRIIKAAQDALEKYGTGCAGSRFLNGTLDIHVELEEKLSAYVGKEAAILFSTGFQSNLGPLSCLMGRNDYILLDERDHASIIDGSRLSFSKVIKYGHNNMEDLRAKLSRLPEDSAKLICTDGIFSMEGDIVNLPELTSIANEFDAAVMVDDAHSLGVIGHKGAGTASHFGLNDDVDLIMGTFSKSLASLGGFVAGDADVIDFLKHNARSVMFSASMTPASVASTLKALEIIQNEPEHIEKLWKNTDYAKAQLLDHGFDLGATESPILPIFIRSNEKTFWVTKMLQDDGVFVNPVVSPAVPAEESLIRFSLMATHTYDQIDEAIEKMVKVFKQAEVETLI | soluble
6 | MVSIMNKNELITEILKNEVVKALGCTEVGLIGYTVAKAKPEDLYSIKEIKLILDKGTFKNAFSVGVPNTNKFGILPAVVGGLLGREENKLEVFKDIKYDEKLEEFIENKLKIEVIDSDVYCKVIIKANKVYEAETKGSHSGKSLSDDLKNAYKSLTLKDFIDYIEDIPEEVIKIIKETIETNKNLSTPEVPEDFISLDLKDEILNHMLKKTVSAVYNRMIGINKPAMAIAGSGNMGLTATLPIIAYDEIKGHDEEKLTKSITLSALTTIYSAYHSSYISAMCGCVNRGGIGAVSGLSYYIFGFDRIEESIKSFTANLPGIVCDGGKIGCALKIASGVFAIYLSLFSKVPYTNGIVGKDFKECIENIGKIGKAMKPVDDEIIEILKNKK | soluble
7 | SHPDLNKLLELWPHIQEYQDLALKHGINDIFQDNGGKLLQVLLITGLTVLPGREGNDAVDNAGQEYELKSINIDLTKGFSTHHHMNPVIIAKYRQVPWIFAIYRGIAIEAIYRLEPKDLEFYYDKWERKWYSDGHKDINNPKIPVKYVMEHGTKIYGSGGSHPDLNKLLELWPHIQEYQDLALKHGINDIFQDNGGKLLQVLLITGLTVLPGREGNDAVDNAGQEYELKSINIDLTKGFSTHHHMNPVIIAKYRQVPWIFAIYRGIAIEAIYRLEPKDLEFYYDKWERKWYSDGHKDINNPKIPVKYVMEHGTKIYGSHHHHHH | soluble
8 | SLDSKTTVNINIPSGSSVSAIASILKKNDVIKSEKAFQYYVKYKGASGFQAGFYHLNKGMDLDAIIQKLTSGATGYAFQITVTEGAQLTQIAAAIADETKYSKKQVIAKLDDETFINQLKKEFPDTVTNDVFNKNIKHPLEGYLFPATYPFNDPDTSLEDIIKAMIKQTNSYVETYKSEMKKNKVSVHKLLTMASLIEEEATEKADRHKIASVFYNRLKKKMPLQTDPTVLYAAGKHKDRVLYKDLEIDSPYNTYKNTGLTPGPIANAGMSSWEAALHPDKTDYLYFLAKSNGEVVFTKTLKEHNKAKEKYISSKNEK | soluble
9 | MGSDKIHHHHHHMNFLKKEPFKIFSMIYLLLDTITNRAGTERAVINLANNLHANGHRVSLVSVCTKEGEPSFQVEKGIEVHHLGIRLYGNALARKTVYFKAYRRIKALYKKREPVLLIGTNIFINTILSQISNRGRIFTIGCEHISYDIARPITKRIRGFLYSGLDAVVALTKRDQQSFEAILRGRSKAYVIPNQVSFTTVQRDATTHKQMLAIGRLTYQKGFEFMIEDASRVLRERPDWKLIIVGDGENESMLRKEIASRNMESQIEIHPSTPEIRKYYESSAIYLMTSRFEGLPMVLLEAEAYALPIISYDCPTGPRELIENGRNGFLVPMEAHEDFADKLRLLMDDETLRKKMGQESELMVKSYSPANIYECWKKLFVEIGYMN | not soluble
10 | MKKQVVEVLVEGGKATPGPPLGPAIGPLGLNVKQVVDKINEATKEFAGMQVPVKIIVDPVTKQFEIEVGVPPTSQLIKKELGLEKGSGEPKHNIVGNLTMEQVIKIAKMKRSQMLALTLKAAAKEVIGTALSMGVTVEGKDPRIVQREIDEGVYDELFEKAEKE | soluble
11 | MGITREELRALVREVVREAVGSLNSSPAQASNQASKPAPPAPPPRATVADQMGLEPTGPRAVEGRNRTETVRLTDDKDLDTFVRKLLRLFESPKTRADLKAGRLRFRLAPGSGAAMANGQAQVTHRIDSGAVTERHIADLAGGTLVLGPRAVLTPLAREKARTLGIVIEKERR | not soluble
12 | MGFYQGPDNRKITGGLKGKHRDKRKYEIGNPPTFTTLSAEDIRIKDRTLGGNFKVRLKYTTTANVLDPATNTAKKVKILEILETPANKELARRGIIIRGAKIRTEAGLAVVTSRPGQDGVINAVLLKNESQRSLEHHHHHH | not soluble
13 | TTFFGRETAFFNGTEKLGRKFSLPVVYMDVEKTGHDVFTGTIKLLHHPQDDSPEGSITEEYVRLMETTIRRDPSQWLWSHRRWKRPRLHNTRQL | not soluble
14 | SLIDNPHAQDCWPNQGHMDVQGLTVKYTEAGRSVLQDLSFTVEGGQSVGVLGRTGSGKSTLLSALLRLASTDGEISIDGVSWNSVTLETWRKAFGVVPQKIFILTGTFRMNLDPHARYSDEELWRVAEEVGLKSVIEQFPDKLDFQLEDGGYVLSNGHKQLMCLARSILSKARILLLDEPSAFLDPITLQVLRKTLKQSFSNCTVILSEHRVEPLLECDSFLMIEGSSMKRYDSIQKLLNETSDLKQAMSAAE | soluble
15 | METQWTRMTANEAAEIIQHNDMVAFSGFTPAGSPKALPTAIARRANEQHEAKKPYQIRLLTGASISAAADDVLSDADAVSWRAPYQTSSGLRKKINQGAVSFVDLHLSEVAQMVNYGFFGDIDVAVIEASALAPDGRVWLTSGIGNAPTWLLRAKKVIIELNHYHDPRVAELADIVIPGAPPRRNSVSIFHAMDRVGTRYVQIDPKKIVAVVETNLPDAGNMLDKQNPMCQQIADNVVTFLLQEMAHGRIPPEFLPLQSGVGNINNAVMARLGENPVIPPFMMYSEVLQESVVHLLETGKISGASASSLTISADSLRKIYDNMDYFASRIVLRPQEISNNPEIIRRLGVIALNVGLEFDIYGHANSTHVAGVDLMNGIGGSGDFERNAYLSIFMAPSIAKEGKISTVVPMCSHVDHSEHSVKVIITEQGIADLRGLSPLQRARTIIDNCAHPMYRDYLHRYLENAPGGHIHHDLSHVFDLHRNLIATGSMLGLEHHHHHH | not soluble
